What was measured:
[1] = system: MS2 coat protein; test: apparent KD of MS2 coat protein, switch ON state; designed switch direction (-1 OFF switch, 1 ON switch): -1; higher = weaker reporter binding; conditions: FMN input: 0 or 200 uM; Eterna round: R93 (includes R88 designs)
How it was run: (§1)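 Designed RNA switches were transcribed on-chip from Illumina sequencing clusters and titrated with SNAP-549-labelled MS2 coat protein in twofold steps from 0.7 or 1.5 nM up to 3 µM. Each step lasted 0.8–1.5 h at first and 10–20 min by the end, in 100 mM Tris-HCl pH 7.5, 80 mM KCl and 4 mM MgCl2, without or with constant ligand. Apparent KD is the median, for each design, of fits to normalised cluster binding curves.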

[2] = system: MS2 coat protein; test: apparent KD of MS2 coat protein, switch OFF state (with FMN for OFF switches, without FMN for ON switches); designed switch direction (-1 OFF switch, 1 ON switch): -1; higher = weaker reporter binding; conditions: FMN input: 0 or 200 uM; Eterna round: R93 (includes R88 designs)
How it was run: as §1

Sequence	apparent KD of MS2 coat protein [1] [nM]	apparent KD of MS2 coat protein [2] [nM]
AAAAAGUUAGGAUAUACAUGAGGAUCACCCAUGUACAUAUAUGGAGAAUAUAGCAGUAGUAGAAGGGACAAAAA [EX2 Malc#13]	26.9	34.8
AAAAAUCGAGGAUAUACAUGAGGAUCACCCAUGUGGGAACACGAUUACACAAAAGAAAGUAGAAGGCGAUAAAA [Ex 3 May 22]	28.2	162
AAAAAUUGAGGAUAUACGUACAUGUCGAAAGACGUGAAGGGACAUGAGGAUCACCCAUGUAGAAGGCGAAAAAA [Mat - Exclusion 2 - JL mod - D73]	45.6	27.9
AAAACACAUGAGGAUCACCCAUGUGAGGAUAUGCGAGUGAAAAUAAAAAUAAAACAUAGCAGAAGGCACAAGGA [Amethyst 80]	35.9	45
AAAACACAUGAGGAUCACCCAUGUGAGGAUAUGCUAUGGAAAAUAAAAAUAAAACAUAGCAGAAGGCACAAAGG [Denovo 18]	32.9	244
AAAACGGUAGGAUAUACGAUUUGGUACUAGACCGAGGAACCACAUGAGGAUCACCCAUGUAGAAGGACCAAAAA [EX2 Malc#19]	13	14
AAAACGUGAGGAUAUACAUGAGGAUCACCCAUGUGAAACAGGAAAAACUGAAAGAAAAGUAGAAGGCACGAAAA [Tweaking Eli]	29	44.4
AAAACUCGAGGAUAUGCAAAAUGAUUGCGAAAGCAAUCAAAACAUGAGGAUCACCCAUGUAGAAGGCGAGAAAA [Mat - Mod of Eli]	23.5	13
AAAACUGGAGGAUAUACAUGAGGAUCACCCAUGUGUGGAUGAGCUGAAACGGCAUCACGUAGAAGGCCACAAAA [Gilly Gone Silly 40 - Jieux - Exclusion 3]	35.3	45.2
AAAACUGGAGGAUAUACAUGAGGAUCACCCAUGUGUGGAUGAGCUGUGUCGGCGUCAAGUAGAAGGCCACAAAA [Gilly Gone Silly 36 - Jieux - Exclusion 3]	36.7	43.1
AAAAGACAUGAGGAUCACCCAUGUGAGGAUAUGACGUAAAGAAAGAAAGAAGAAAUCGUCAGAAGGCACACCUA [Mat - Exclusion 1 - Eli mod - D68]	31.6	63.5
AAAAGCACAGGAUAUACAAAAAAAUGACGAAAGUCAUAGGGACAUGAGGAUCACCCAUGUAGAAGGGUGCAAAA [Mod of Meechl's... 64% 4]	197	440
AAAAGCUAAGGAUAUACAUGAGGAUCACCCAUGUAGAACAGUGUAUGGGUAAAGGCGCGUAGAAGGUAGAAAAG [Arbileat]	29.9	42.1
AAAAUACAUGAGGAUCACCCAUGUGAGGAUAUCGUAAAGAAAGUGAUCAAAAGAAAUACGAGAAGGCACAUAAA [PK3]	123	212
AAAAUGGCAGGAUAUACUAAAAUAAAAAACUAUGCUAAAACACAUGAGGAUCACCCAUGUAGAAGGGCCAAAAA [AJ 5]	26.2	18.8
AAACCACAUGAGGAUCACCCAUGUGAGGAUAUGAACGAAAUAAAAUAAAAAUAAAAGUUCAGAAGGCACAAAAA [Mat - Exclusion 1 - Eli mod - D14]	18.2	20.6
AAAGGACAUGAGGAUCACCCAUGUGAGGAUAUGACGUAAAUAAAGAAAGAAGAAAUCGUCAGAAGGCACACCUA [55%, Disencluded 2, 2]	40.7	45.1

Sequence	apparent KD of MS2 coat protein [1] [nM]	apparent KD of MS2 coat protein [2] [nM]
AAAGGACAUGAGGAUCACCCAUGUGAGGAUAUGCGAAAAAAAAAAAUAAAAAAAAAAAGUAGAAGGCACACCAA [Mat - Exclusion 1 - Eli mod - D57]	99.4	128
AAAGGACGAGGAUAUACAUGAGGAUCACCCAUGUAAAAAACGUAAGAAAAGAAGUUAUGUAGAAGGCGUCCAAA [69%, Moding Meechl, 14]	15.5	20.6
AAAGGACGAGGAUAUACAUGAGGAUCACCCAUGUAAAAAGCGUAGUAAAAGAACUUAUGUAGAAGGCGUCCAAA [Meechl Ex3 2 R2 v3]	59.4	137
AAAGGAUCAGGAUAUGUGUGGAAAAAGUGUGUCCAAAAAAAACAUGAGGAUCACCCAUGUAGAAGGGAUCCAAA [Mod 4 of Normal (20/19) by Nando, Round 1]	222	260
AAAGGGUCAGGAUAUGUACGAACAACAAAACAAAUAACGAUACAGAAGGGACAUGAGGAUCACCCAUGUAUAAA [May 74]	55.8	70.6
AAAGGGUCAGGAUAUGUACGAACAACAAAACAAAUAACGGUACAGAAGGGACAUGAGGAUCACCCAUGUAUAAA [May 73]	51.9	64.1
AAAGGUUGAGGAUAUGCGUGGAAAAAGUGUAUUCAAAAAAAACAUGAGGAUCACCCAUGUAGAAGGCGACCAAA [MS2 Riboswitches On Chip Exclusion 2 wbt3]	61.9	163
AAAUGCUGAGGAUAUACAUGAGGAUCACCCAUGUGAAAUAAAAAAUGUGUGUAAGCGUGUAGAAGGCAGCAUAA [Exclusion 3.12 (FMN+ favored)]	57.1	25.8
AAAUGUCUAGGAUAUACAUGAGGAUCACCCAUGUGUAAAAAUAAAUACACAAAAGAAAGUAGAAGGAGACAAAA [Ex 3 May 13]	22.4	47.3
AAAUUGUCAGGAUAUCGUAUAACAUGGAAAACAUGGAGAUACGAGAAGGGACAUGAGGAUCACCCAUGUAAAAC [May 95]	51.6	87.4
AACAAACAUGAGGAUCACCCAUGUAAGGAUAUGCAACAAAAACAAAAAACAAAAAAAAGCAGAAGGUACAACAA [Amethyst 99]	25.6	28.8
AACAAGACAGGAUAUACAUGAGGAUCACCCAUGUCACAAUAAAGUAGCGUAACACAAAGUAGAAGGGUCAUGGA [Ruby 8]	41.5	50.4
AACAGGACAGGAUAUACAUGAGGAUCACCCAUGUAGGAAACAAGCAGAGUACCAAAAAGUAGAAGGGUCAUGGA [Ruby 30]	38.8	63.3
AACAGGUCAGGAUAUGUGGAAAAAAUAAAAAAAAAUAAAACACAGAAGGGACAUGAGGAUCACCCAUGUAAAUA [Mat - Exclusion 4 - Mayanna - D142]	68.7	59.2
AACAGGUCAGGAUAUGUGUAAAAAAUAAAAAAAAUAUAAACACAGAAGGGACAUGAGGAUCACCCAUGUUAACA [May 26]	31.5	35.7
AACAGUACAGGAUAUACAUGAGGAUCACCCAUGUGAAAAGAAAGUGGCGUACCACAAAGUAGAAGGGUACUGAA [Mat - Exclusion 3 - JL mod - D29]	25.3	135
AACAGUACAGGAUAUACAUGAGGAUCACCCAUGUGAAAAUUAAGUGGAAAACCACAGUGUAGAAGGGUACUGGA [Mat - Exclusion 3 - Eli mod - D53]	47.5	191

— the supplement of paper PMC9170038
